Experimental data from the supplement of paper PMC6755084.

B1: minF1; a variant is named by its letters at N, in order (parent)
chain: GAGACCGCAACTGAAAAGTTGTTANNNNAANGNNNGGTTGAATTTCTGCACGTAGAAGCAAAAGGC

Variants of: B1
Assay: fraction ligated after 30 min (ligated reads / total reads); higher = more ligase activity
Settings: with F1*subA RNA substrate (template-directed ligation), 42 °C
Method in brief: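 RNAs for minimized ligase ribozyme variants were transcribed with T7 from PCR-amplified oligo-pool templates and purified on gels. Ligated and unligated species were resolved on gels, converted to cDNA with barcoded primers, and read on a MiSeq with core bases filtered at quality ≥30. Fraction ligated per variant is the ratio of ligated reads to total reads.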

For GAGACCGCAACTGAAAAGTTGTTACAGAAATGATGGGTTGAATTTCTGCACGTAGAAGCAAAAGGC [CAGATATG], which fraction ligated is on record?
The fraction ligated was 0.00456.

For GAGACCGCAACTGAAAAGTTGTTATCAGAAATGTGGGTTGAATTTCTGCACGTAGAAGCAAAAGGC [TCAGAGTG G32T], which fraction ligated is on record?
The fraction ligated was 0.00848.

How did the fraction ligated turn out when GAGACCGCAACTGAAAAGTTGTTTCAGAAATGGAGGGTTGAATTTCTGCACGTAGAAGCAAAAGGC [CAGATGAG A24T] was run?
The fraction ligated was 0.00352.

How did the fraction ligated turn out when GAGACCGCAACTGAAAAGTTGTTATAAAATGGATGGGTTGAATTTCTGCACGTAGAAGCAAAAGGC [TAAAGATG A30T] was run?
The fraction ligated was 0.021.

How did the fraction ligated turn out when GAGACCGCAACTGAAAAGTTGTTATCAAAATGGATGGGTTGATTTCTGCACGTAGAAGCAAAAGGC [TCAATGAT T38G G40T A41G] was run?
Its fraction ligated is 0.302.

For GAGACCGCAACTGAAAAGTTGTTATAGAAAGGATGGGTTGAATTTCTGCACGTAGAAGCAAAAGGC [TAGAGATG], which fraction ligated is on record?
Its fraction ligated is 0.00517.

For GAGACCGCAACTGAAAAGTTGTTATCAAAATGGATGGTTGAATTTCTGCACGTAGAAGCAAAAGGC [TCAATGAT], which fraction ligated is on record?
The fraction ligated was 0.0159.

For GAGACCGCAACTGAAAAGTTGTTATCAAAATGGAGGGTTGAATTTCTGCACGTAGAAGCAAAAGGC [TCAATGAG], which fraction ligated is on record?
The fraction ligated was 0.00836.

For GAGACCGCAACTGAAAAGTTGTATCAGAAATGGATGGTTGAATTTCTGCACGTAGAAGCAAAAGGC [CAGATGAT T23A A24T], which fraction ligated is on record?
Its fraction ligated is 0.0249.

Which fraction ligated does the source give for GAGACCGCAACTGAAAAGTTGTTTCAGAAATGGATGGGTTGATTTCTGCACGTAGAAGCAAAAGGC [CAGATGAT A24T T38G G40T A41G] here?
Its fraction ligated is 0.0273.

With GAGACCGCAACTGAAAAGTTGTTATCAGAATGGTGGGTTGAATTTCTGCACGTAGAAGCAAAAGGC [TCAGTGTG] as the variant, how does the fraction ligated read?
Its fraction ligated is 0.00427.

How did the fraction ligated turn out when GAGACCGCAACTGAAAAGTTGTTTCAGAAATGATGGGTTGAATTTCTGCACGTAGAAGCAAAAGGC [CAGATATG A24T] was run?
Its fraction ligated is 0.00546.

How did the fraction ligated turn out when GAGACCGCAACTGAAAAGTTGTTATCAGAATGGATGGTTGAATTTCTGCACGTAGAAGCAAAAGGC [TCAGTGAT] was run?
Its fraction ligated is 0.0235.

GAGACCGCAACTGAAAAGTTGTTATCAGAATGGAGGGTTGAATTTCTGCACGTAGAAGCAAAAGGC [TCAGTGAG] was tested. Which fraction ligated did it give?
The fraction ligated was 0.00523.

With GAGACCGCAACTGAAAAGTTGTTATCAGAAAGGATGGGTTAATTTCTGCACGTAGAAGCAAAAGGC [TCAGAGAT T38G G40T] as the variant, how does the fraction ligated read?
Its fraction ligated is 0.004.

For GAGACCGCAACTGAAAAGTTGTTTCAGAAATGGATGGGTTAATTTCTGCACGTAGAAGCAAAAGGC [CAGATGAT A24T T38G G40T], which fraction ligated is on record?
The fraction ligated was 0.00536.

Which fraction ligated does the source give for GAGACCGCAACTGAAAAGTTGTATCAGAAATGGAGGGTTGAATTTCTGCACGTAGAAGCAAAAGGC [CAGATGAG T23A A24T] here?
Its fraction ligated is 0.00151.

How did the fraction ligated turn out when GAGACCGCAACTGAAAAGTTGTTACAGAAAGGATGGGTTGAATTTCTGCACGTAGAAGCAAAAGGC [CAGAGATG] was run?
The fraction ligated was 0.00233.

GAGACCGCAACTGAAAAGTTGTTATCAAAATGATGGGTTGAATTTCTGCACGTAGAAGCAAAAGGC [TCAATATG] was tested. Which fraction ligated did it give?
Its fraction ligated is 0.00928.

For GAGACCGCAACTGAAAAGTTGTTATAGAAATGGATGGGTTGATTTCTGCACGTAGAAGCAAAAGGC [TAGATGAT T38G G40T A41G], which fraction ligated is on record?
Its fraction ligated is 0.025.

How did the fraction ligated turn out when GAGACCGCAACTGAAAAGTTGTTATAGAAATGGTGGGTTGAATTTCTGCACGTAGAAGCAAAAGGC [TAGATGTG] was run?
Its fraction ligated is 0.00059.

With GAGACCGCAACTGAAAAGTTGTATCAAAATGGATGGGTTGAATTTCTGCACGTAGAAGCAAAAGGC [CAAAGATG T23A A24T A30T] as the variant, how does the fraction ligated read?
Its fraction ligated is 0.0275.

With GAGACCGCAACTGAAAAGTTGTATCAGAAATGGATGGGTTAATTTCTGCACGTAGAAGCAAAAGGC [CAGATGAT T23A A24T T38G G40T] as the variant, how does the fraction ligated read?
Its fraction ligated is 0.0102.

GAGACCGCAACTGAAAAGTTGTTATCAAATGGATGGGTTGAATTTCTGCACGTAGAAGCAAAAGGC [TCAAGATG A30T] was tested. Which fraction ligated did it give?
The fraction ligated was 0.111.

For GAGACCGCAACTGAAAAGTTGTTACAGAAATGGAGGGTTGAATTTCTGCACGTAGAAGCAAAAGGC [CAGATGAG], which fraction ligated is on record?
Its fraction ligated is 0.00664.

With GAGACCGCAACTGAAAAGTTGTTACAGAAATGGATGGTTGAATTTCTGCACGTAGAAGCAAAAGGC [CAGATGAT] as the variant, how does the fraction ligated read?
The fraction ligated was 0.0096.

With GAGACCGCAACTGAAAAGTTGTATCAGAATGGATGGGTTGAATTTCTGCACGTAGAAGCAAAAGGC [CAGAGATG T23A A24T A30T] as the variant, how does the fraction ligated read?
Its fraction ligated is 0.0668.

How did the fraction ligated turn out when GAGACCGCAACTGAAAAGTTGTTATAGAATGGATGGGTTGAATTTCTGCACGTAGAAGCAAAAGGC [TAGAGATG A30T] was run?
The fraction ligated was 0.0449.

For GAGACCGCAACTGAAAAGTTGTTTCAAAATGGATGGGTTGAATTTCTGCACGTAGAAGCAAAAGGC [CAAAGATG A24T A30T], which fraction ligated is on record?
Its fraction ligated is 0.0148.

With GAGACCGCAACTGAAAAGTTGTTATCAGAATGATGGGTTGAATTTCTGCACGTAGAAGCAAAAGGC [TCAGTATG] as the variant, how does the fraction ligated read?
The fraction ligated was 0.011.

How did the fraction ligated turn out when GAGACCGCAACTGAAAAGTTGTTATCAGAAATGGATGGGTTATTTCTGCACGTAGAAGCAAAAGGC [TCAGAGGA G32T G36T T38G T39G G40T A41T] was run?
The fraction ligated was 0.00781.

GAGACCGCAACTGAAAAGTTGTTATCAGAAATGGATGGTTAATTTCTGCACGTAGAAGCAAAAGGC [TCAGAGGA G32T G36T T38G G40T] was tested. Which fraction ligated did it give?
The fraction ligated was 0.0174.

How did the fraction ligated turn out when GAGACCGCAACTGAAAAGTTGTTATCAGAAATGGTGGGTTAATTTCTGCACGTAGAAGCAAAAGGC [TCAGAGGT G32T T38G G40T] was run?
Its fraction ligated is 0.00529.

GAGACCGCAACTGAAAAGTTGTTATCAGAAATATGGGTTGAATTTCTGCACGTAGAAGCAAAAGGC [TCAGAATG G32T] was tested. Which fraction ligated did it give?
The fraction ligated was 0.00623.

For GAGACCGCAACTGAAAAGTTGTTACAGAATGGATGGGTTGAATTTCTGCACGTAGAAGCAAAAGGC [CAGAGATG A30T], which fraction ligated is on record?
Its fraction ligated is 0.0134.

Which fraction ligated does the source give for GAGACCGCAACTGAAAAGTTGTTATCAGAAATGGATGGGTTCTTTCTGCACGTAGAAGCAAAAGGC [TCAGAGGA G32T G36T T38G T39G G40T A41T A42C] here?
Its fraction ligated is 0.00198.

How did the fraction ligated turn out when GAGACCGCAACTGAAAAGTTGTTATCAGAAATGGATGGGTTTTTTCTGCACGTAGAAGCAAAAGGC [TCAGAGGA G32T G36T T38G T39G G40T A41T A42T] was run?
The fraction ligated was 0.00119.

For GAGACCGCAACTGAAAAGTTGTTATCAGAAATGGATGGGTTGTTTCTGCACGTAGAAGCAAAAGGC [TCAGAGGA G32T G36T T38G T39G G40T A41T A42G], which fraction ligated is on record?
Its fraction ligated is 0.00154.

For GAGACCGCAACTGAAAAGTTGTTATAGAAATGGATGGGTTAATTTCTGCACGTAGAAGCAAAAGGC [TAGATGAT T38G G40T], which fraction ligated is on record?
Its fraction ligated is 0.00516.

For GAGACCGCAACTGAAAAGTTGTTATCGAAATGGAGGGTTGAATTTCTGCACGTAGAAGCAAAAGGC [TCGATGAG], which fraction ligated is on record?
The fraction ligated was 0.00384.

GAGACCGCAACTGAAAAGTTGTATCAGAAATGGTGGGTTGAATTTCTGCACGTAGAAGCAAAAGGC [CAGATGTG T23A A24T] was tested. Which fraction ligated did it give?
Its fraction ligated is 0.00275.
